Where a chain is given by its changes, count along the chain named. In names and notes the source's numbering stands. Where two headings read alike, the source gives them in different places. Values belong to the molecule of their own block, whether it stands above or below them.
Experiments:
[1] = target: biotinylated mouse IL-2Rα (mIL-2Rα ectodomain with C-terminal biotin acceptor peptide) (mouse); assay: SPR
[2] = target: biotinylated mouse IL-2Rα (mIL-2Rα ectodomain with C-terminal biotin acceptor peptide) (mouse); assay: SPR; remark: listed apart in the source
[3] = target: IL-2 receptor βγ (Homo sapiens) (UniProt P14784); settings: cited from earlier work
Chain of IL-2 receptor βγ (Homo sapiens) (P14784 27-240, chain 1 of 2): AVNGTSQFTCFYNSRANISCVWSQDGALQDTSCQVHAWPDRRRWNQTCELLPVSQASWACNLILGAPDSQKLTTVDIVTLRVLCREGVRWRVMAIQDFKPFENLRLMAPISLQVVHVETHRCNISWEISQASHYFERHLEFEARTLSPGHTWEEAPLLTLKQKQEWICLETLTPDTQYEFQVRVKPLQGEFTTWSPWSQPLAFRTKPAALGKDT
Chain of IL-2 receptor βγ (Homo sapiens) (P31785 23-262, chain 2 of 2, further chain): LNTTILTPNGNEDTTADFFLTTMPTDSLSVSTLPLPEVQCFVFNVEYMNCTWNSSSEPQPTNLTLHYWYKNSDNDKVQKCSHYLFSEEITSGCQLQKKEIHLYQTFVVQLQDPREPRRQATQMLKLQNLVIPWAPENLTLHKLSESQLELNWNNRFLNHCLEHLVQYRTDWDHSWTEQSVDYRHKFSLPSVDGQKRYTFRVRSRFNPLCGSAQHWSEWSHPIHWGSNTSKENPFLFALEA

[4] = target: mouse IL-2 (mIL-2, amino acids 1–149), hexahistidine-tagged (Mus musculus, UniProt P04351); assay: SPR
Chain of mouse IL-2 (mIL-2, amino acids 1–149), hexahistidine-tagged (P04351 21-169): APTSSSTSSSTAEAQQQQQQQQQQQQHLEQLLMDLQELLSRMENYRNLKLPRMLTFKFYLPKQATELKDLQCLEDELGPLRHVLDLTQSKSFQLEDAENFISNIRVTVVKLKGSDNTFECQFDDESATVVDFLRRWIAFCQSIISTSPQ

Molecule: JES6–1 immunocytokine double mutant S34A+Y101A (VL) (from UniProt P04351 21-169)
- Kd [1]: 82 nM

Molecule: JES6–1 immunocytokine mutant H100A (VL) (from UniProt P04351 21-169)
- Kd [2]: 240 nM

Molecule: JES6–1 immunocytokine triple mutant S34A+Y41A+Y101A (VL) (from UniProt P04351 21-169)
- Kd [1]: 130 nM

Molecule: JES6–1 immunocytokine (IL-2 tethered to the N-terminus of the JES6–1 antibody light chain) (from UniProt P04351 21-169)
- Kd [1]: 220 nM
- Kd [2]: 290 nM

Molecule: JES6–1 immunocytokine mutant S34A (VL) (from UniProt P04351 21-169)
- Kd [2]: 170 nM

Molecule: JES6–1 immunocytokine double mutant S34A+Y41A (VL) (from UniProt P04351 21-169)
- Kd [1]: 210 nM

Molecule: IL-2 (from UniProt P60568)
- Kd [3]: 1 nM

Molecule: JY3 immunocytokine (JES6–1 immunocytokine double mutant Y41A+Y101A, VL) (from UniProt P04351 21-169)
- Kd [1]: 82 nM

B1: biotinylated JES6–1 antibody mutant S34A (VL) (antibody, V domains shown)
VH: EIQLQQSGPELRRPGSSVKLSCKASGYNITDYLIHWVRHRPEHGLEWIGWIDPEDGETRYAQKFQSKATLTADTSSNAAYMQLSSLTPEDTATYFCARSLDSTYIYPFAYWGQGTLVTVSS
VL: DIVMTQSPFSLAVSEGEMVTINCKSSQSLLASGNQKNYLAWYQQKPGQSPKLLIYYASTGQSGVPDRFIGSGSGTDFTLTISDVQAEDLADYYCLQHYISPPTFGAGTKLELK
- Kd [4]: 6.5 nM

B5: biotinylated JES6–1 antibody mutant Y101A (VL) (antibody, V domains shown)
VH: B1 VH
VL: B1 VL with A31S, Y98A
- Kd [4]: 12 nM

B6: biotinylated JES6–1 antibody mutant R62A (VH) (antibody, V domains shown)
VH: B1 VH with R59A
VL: B1 VL with A31S
- Kd [4]: 4.3 nM

B7: biotinylated JES6–1 antibody mutant Y41A (VL) (antibody, V domains shown)
VH: B1 VH
VL: B1 VL with A31S, Y38A
- Kd [4]: 6.4 nM

B8: biotinylated JES6–1 antibody mutant D55A (VH) (antibody, V domains shown)
VH: B1 VH with D52A
VL: B1 VL with A31S
- Kd [4]: 500 nM

Now from value to molecule:

- Kd [2]: 140 nM
Molecule: JES6–1 immunocytokine mutant Y101A (VL) (from UniProt P04351 21-169)

- Kd [2]: 230 nM
Molecule: JES6–1 immunocytokine mutant D55A (VH) (from UniProt P04351 21-169)

- Kd [2]: 130 nM
Molecule: JES6–1 immunocytokine mutant Y41A (VL) (from UniProt P04351 21-169)

- Kd [2]: 190 nM
Molecule: JES6–1 immunocytokine mutant R62A (VH) (from UniProt P04351 21-169)

- Kd [2]: 260 nM
Molecule: JES6–1 immunocytokine mutant D58A (VH) (from UniProt P04351 21-169)

- Kd [2]: 210 nM
Molecule: JES6–1 immunocytokine mutant E60A (VH) (from UniProt P04351 21-169)

- Kd [4]: 56 nM
B2: biotinylated JES6–1 antibody mutant E60A (VH) (antibody, V domains shown)
VH: B1 VH with E57A
VL: B1 VL with A31S

- Kd [4]: 200 nM
B3: biotinylated JES6–1 antibody mutant D58A (VH) (antibody, V domains shown)
VH: B1 VH with D55A
VL: B1 VL with A31S

- Kd [4]: 62 nM
B4: biotinylated JES6–1 antibody mutant H100A (VL) (antibody, V domains shown)
VH: B1 VH
VL: B1 VL with A31S, H97A

Source: publication PMC6173196 (Journal of immunology (Baltimore, Md. : 1950), 2018)
